We go through 18 molecules from US20230050380A1 (CHIOME BIOSCIENCE, published 2023).

The target in the assay is T1, full-length hCDCP1 with N-terminal c-Myc tag (expression vector GS01), on Ba/F3-hCDCP1 cells or … (human, UniProt Q9H5V8 30-836).
T1 construct: also called human CDCP1; hCDCP1 forced expression cells
T1 sequence: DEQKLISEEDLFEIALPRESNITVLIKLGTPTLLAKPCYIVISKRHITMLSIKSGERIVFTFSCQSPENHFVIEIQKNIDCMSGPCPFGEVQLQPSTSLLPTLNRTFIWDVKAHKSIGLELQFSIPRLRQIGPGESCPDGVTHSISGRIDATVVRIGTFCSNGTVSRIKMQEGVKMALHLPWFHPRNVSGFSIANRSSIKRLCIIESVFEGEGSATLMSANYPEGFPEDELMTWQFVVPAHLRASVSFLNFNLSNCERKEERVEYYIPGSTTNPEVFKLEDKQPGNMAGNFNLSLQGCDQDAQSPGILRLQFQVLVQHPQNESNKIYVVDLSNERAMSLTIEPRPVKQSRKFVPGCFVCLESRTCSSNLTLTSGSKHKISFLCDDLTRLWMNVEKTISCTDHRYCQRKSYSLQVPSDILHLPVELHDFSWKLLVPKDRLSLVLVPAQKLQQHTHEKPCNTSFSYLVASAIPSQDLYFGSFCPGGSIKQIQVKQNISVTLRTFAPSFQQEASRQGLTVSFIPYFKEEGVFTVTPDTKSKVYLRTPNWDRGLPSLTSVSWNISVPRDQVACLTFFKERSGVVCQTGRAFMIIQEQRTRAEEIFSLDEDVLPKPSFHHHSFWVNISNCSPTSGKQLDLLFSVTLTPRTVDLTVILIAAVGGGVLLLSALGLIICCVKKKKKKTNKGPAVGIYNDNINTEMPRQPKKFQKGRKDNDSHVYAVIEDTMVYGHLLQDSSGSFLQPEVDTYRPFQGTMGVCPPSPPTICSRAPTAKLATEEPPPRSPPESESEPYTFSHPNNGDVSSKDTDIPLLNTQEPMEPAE
The experiment in a line: flow cytometry on Ba/F3-hCDCP1 cells. In general terms: A flow cytometer gives signals particle by particle.

B1: mh14A025HCv1/LCori (antibody, human IgG1, kappa, V domains shown)
VH: EVQLQESGAELVRPGALVKLSCKASGFNIKDYYMHWVKQRPEQGLEWIGWIDPESGNTIYDPKFQGKASITADTSSNTAYLQLSSLTSEDTAVYYCGGLLYAMDYWGQGTSVTVSS
VL: DIQMTQTTSSLSASLGDRVTISCRASQDISNYLNWYQQKPDGTVKLLIYFTSRLHSGVPSRFSGSGSGTDYSLTISNLEQEDIATYFCQQGNTLPRTFGGGTKLEIRR
notes: mouse-human chimeric antibody, human IgG1/kappa constant regions
As for B1, the binding result is reported as “binds”.

B2: mh14A025HCv5/LCori (antibody, human IgG1, kappa, V domains shown)
VH: EVQLQESGAELVRPGALVKLSCKASGFNIKDYYMHWVKQRPEQGLEWIGWIDPENDNTIYDPKFQGKASITADTSSNTAYLQLSSLTSEDTAVYYCGGLLYAMDYWGQGTSVTVSS
VL: DIQMTQTTSSLSASLGDRVTISCRASQDISNYLNWYQQKPDGTVKLLIYFTSRLHSGVPSRFSGSGSGTDYSLTISNLEQEDIATYFCQQGNTLPRTFGGGTKLEIRR
notes: as for B1
On to B2, for which the binding result is “binds”.

B3: mh14A025HCv8/LCori (antibody, human IgG1, kappa, V domains shown)
VH: EVQLQESGAELVRPGALVKLSCKASGFNIKDYYMHWVKQRPEQGLEWIGWIDPEFGNTIYDPKFQGKASITADTSSNTAYLQLSSLTSEDTAVYYCGGLLYAMDYWGQGTSVTVSS
VL: DIQMTQTTSSLSASLGDRVTISCRASQDISNYLNWYQQKPDGTVKLLIYFTSRLHSGVPSRFSGSGSGTDYSLTISNLEQEDIATYFCQQGNTLPRTFGGGTKLEIRR
notes: as for B1
With B3, the binding result is “binds”.

B4: mh14A025HCv19/LCori (antibody, human IgG1, kappa, V domains shown)
VH: EVQLQESGAELVRPGALVKLSCKASGFNIKDYYMHWVKQRPEQGLEWIGWIDPERGNTIYDPKFQGKASITADTSSNTAYLQLSSLTSEDTAVYYCGGLLYAMDYWGQGTSVTVSS
VL: DIQMTQTTSSLSASLGDRVTISCRASQDISNYLNWYQQKPDGTVKLLIYFTSRLHSGVPSRFSGSGSGTDYSLTISNLEQEDIATYFCQQGNTLPRTFGGGTKLEIRR
notes: as for B1
Regarding B4, the binding result is recorded as “binds”.

B5: mh14A025HCv15/LCori (antibody, human IgG1, kappa, V domains shown)
VH: EVQLQESGAELVRPGALVKLSCKASGFNIKDYYMHWVKQRPEQGLEWIGWIDPENLNTIYDPKFQGKASITADTSSNTAYLQLSSLTSEDTAVYYCGGLLYAMDYWGQGTSVTVSS
VL: DIQMTQTTSSLSASLGDRVTISCRASQDISNYLNWYQQKPDGTVKLLIYFTSRLHSGVPSRFSGSGSGTDYSLTISNLEQEDIATYFCQQGNTLPRTFGGGTKLEIRR
notes: as for B1
With B5, the binding result is “binds”.

B6: mh14A025HCv17/LCori (antibody, human IgG1, kappa, V domains shown)
VH: EVQLQESGAELVRPGALVKLSCKASGFNIKDYYMHWVKQRPEQGLEWIGWIDPENMNTIYDPKFQGKASITADTSSNTAYLQLSSLTSEDTAVYYCGGLLYAMDYWGQGTSVTVSS
VL: DIQMTQTTSSLSASLGDRVTISCRASQDISNYLNWYQQKPDGTVKLLIYFTSRLHSGVPSRFSGSGSGTDYSLTISNLEQEDIATYFCQQGNTLPRTFGGGTKLEIRR
notes: as for B1
For the molecule B6, the binding result was “binds”.

B7: mh14A025HCv7/LCori (antibody, human IgG1, kappa, V domains shown)
VH: EVQLQESGAELVRPGALVKLSCKASGFNIKDYYMHWVKQRPEQGLEWIGWIDPENENTIYDPKFQGKASITADTSSNTAYLQLSSLTSEDTAVYYCGGLLYAMDYWGQGTSVTVSS
VL: DIQMTQTTSSLSASLGDRVTISCRASQDISNYLNWYQQKPDGTVKLLIYFTSRLHSGVPSRFSGSGSGTDYSLTISNLEQEDIATYFCQQGNTLPRTFGGGTKLEIRR
notes: as for B1
For B7, the binding result is “binds”.

B8: mh14A025HCv2/LCori (antibody, human IgG1, kappa, V domains shown)
VH: EVQLQESGAELVRPGALVKLSCKASGFNIKDYYMHWVKQRPEQGLEWIGWIDPENANTIYDPKFQGKASITADTSSNTAYLQLSSLTSEDTAVYYCGGLLYAMDYWGQGTSVTVSS
VL: DIQMTQTTSSLSASLGDRVTISCRASQDISNYLNWYQQKPDGTVKLLIYFTSRLHSGVPSRFSGSGSGTDYSLTISNLEQEDIATYFCQQGNTLPRTFGGGTKLEIRR
notes: as for B1
For B8, the binding result is recorded as “binds”.

B9: mh12A041HCori/LCoriA (antibody, human IgG1, kappa, V domains shown)
VH: EVQLQESGPGILQPSQTLSLTCSFSGFSLSTSGMGVSWIRQPSGKGLEWLAHIYWDDDKRYNPSLKSRLTISKDTSSNQVFLKITSVDTADTATYYCARSGSYYGSSLDCWGQGTTLTVSS
VL: DVLMTQTPLSLPVSLGDQASISCRSSQSIVYSNGNTYLEWYLQKPGQSPKLLIYKVSNRFSGVPDRFSGSGSGTDFTLKISRVEAEDLGVYYCFQGSHVPWTFGGGTKLEIRR
notes: as for B1
Turning to B9, the binding result was “binds”.

B10: mh12A041HCv1/LCv1 (antibody, human IgG1, kappa, V domains shown)
VH: EVQLQESGPGILQPSQTLSLTCSFSGFSLSTSGMGVSWIRQPSGKGLEWLAHIYWDDDKRYNPSLKSRLTISKDTSSNQVFLKITSVDTADTATYYCARSGSYYGSSLDSWGQGTTLTVSS
VL: DVLMTQTPLSLPVSLGDQASISCRSSQSIVHSSGNTYLEWYLQKPGQSPKLLIYKVSNRFSGVPDRFSGSGSGTDFTLKISRVEAEDLGVYYCFQGSHVPWTFGGGTKLEIRR
notes: as for B1
As for B10, the binding result is listed as “binds”.

B11: mh12A041HCori/LCv1 (antibody, human IgG1, kappa, V domains shown)
VH: EVQLQESGPGILQPSQTLSLTCSFSGFSLSTSGMGVSWIRQPSGKGLEWLAHIYWDDDKRYNPSLKSRLTISKDTSSNQVFLKITSVDTADTATYYCARSGSYYGSSLDCWGQGTTLTVSS
VL: DVLMTQTPLSLPVSLGDQASISCRSSQSIVHSSGNTYLEWYLQKPGQSPKLLIYKVSNRFSGVPDRFSGSGSGTDFTLKISRVEAEDLGVYYCFQGSHVPWTFGGGTKLEIRR
notes: as for B1
B11: the binding result was “binds”.

B12: mh12A041HCoriA/LCoriA (antibody, human IgG1, kappa, V domains shown)
VH: EVQLQESGPGILQPSQTLSLTCSFSGFSLSTFGMGVSWIRQPSGKGLEWLAHIYWDDDKRYNPSLKSRLTISKDTSSNQVFLKITSVDTADTATYYCARSGSYYGSSLDCWGQGTTLTVSS
VL: DVLMTQTPLSLPVSLGDQASISCRSSQSIVYSNGNTYLEWYLQKPGQSPKLLIYKVSNRFSGVPDRFSGSGSGTDFTLKISRVEAEDLGVYYCFQGSHVPWTFGGGTKLEIRR
notes: as for B1
With B12, the binding result is given as “binds”.

B13: mh12A041HCoriA/LCoriB (antibody, human IgG1, kappa, V domains shown)
VH: EVQLQESGPGILQPSQTLSLTCSFSGFSLSTFGMGVSWIRQPSGKGLEWLAHIYWDDDKRYNPSLKSRLTISKDTSSNQVFLKITSVDTADTATYYCARSGSYYGSSLDCWGQGTTLTVSS
VL: DVLMTQTPLSLPVSLGDQASISCRSSQNIVHSDGNTYLEWYLQKPGQSPKLLIYKVSNRFSGVPDRFSGSGSGTDFTLKISRVEAEDLGVYYCFQGSHVPWTFGGGTKLEIRR
notes: as for B1
Turning to B13, the binding result is “binds”.

B14: mh12A041HCoriA/LCori (antibody, human IgG1, kappa, V domains shown)
VH: EVQLQESGPGILQPSQTLSLTCSFSGFSLSTFGMGVSWIRQPSGKGLEWLAHIYWDDDKRYNPSLKSRLTISKDTSSNQVFLKITSVDTADTATYYCARSGSYYGSSLDCWGQGTTLTVSS
VL: DVLMTQTPLSLPVSLGDQASISCRSSQSIVHSNGNTYLEWYLQKPGQSPKLLIYKVSNRFSGVPDRFSGSGSGTDFTLKISRVEAEDLGVYYCFQGSHVPWTFGGGTKLEIKR
notes: as for B1
Turning to B14, the binding result is on record as “binds”.

B15: mh12A041HCori/LCv2 (antibody, human IgG1, kappa, V domains shown)
VH: EVQLQESGPGILQPSQTLSLTCSFSGFSLSTSGMGVSWIRQPSGKGLEWLAHIYWDDDKRYNPSLKSRLTISKDTSSNQVFLKITSVDTADTATYYCARSGSYYGSSLDCWGQGTTLTVSS
VL: DVLMTQTPLSLPVSLGDQASISCRSSQSIVHSNANTYLEWYLQKPGQSPKLLIYKVSNRFSGVPDRFSGSGSGTDFTLKISRVEAEDLGVYYCFQGSHVPWTFGGGTKLEIRR
notes: as for B1
In the case of B15, the binding result is listed as “binds”.

B16: mh12A041HCori/LCoriB (antibody, human IgG1, kappa, V domains shown)
VH: EVQLQESGPGILQPSQTLSLTCSFSGFSLSTSGMGVSWIRQPSGKGLEWLAHIYWDDDKRYNPSLKSRLTISKDTSSNQVFLKITSVDTADTATYYCARSGSYYGSSLDCWGQGTTLTVSS
VL: DVLMTQTPLSLPVSLGDQASISCRSSQNIVHSDGNTYLEWYLQKPGQSPKLLIYKVSNRFSGVPDRFSGSGSGTDFTLKISRVEAEDLGVYYCFQGSHVPWTFGGGTKLEIRR
notes: as for B1
For the molecule B16, the binding result is on record as “binds”.

B17: mh12A041HCv1/LCori (antibody, human IgG1, kappa, V domains shown)
VH: EVQLQESGPGILQPSQTLSLTCSFSGFSLSTSGMGVSWIRQPSGKGLEWLAHIYWDDDKRYNPSLKSRLTISKDTSSNQVFLKITSVDTADTATYYCARSGSYYGSSLDSWGQGTTLTVSS
VL: DVLMTQTPLSLPVSLGDQASISCRSSQSIVHSNGNTYLEWYLQKPGQSPKLLIYKVSNRFSGVPDRFSGSGSGTDFTLKISRVEAEDLGVYYCFQGSHVPWTFGGGTKLEIKR
notes: as for B1
Turning to B17, the binding result was “binds”.

B18: mh12A041HCv1/LCv2 (antibody, human IgG1, kappa, V domains shown)
VH: EVQLQESGPGILQPSQTLSLTCSFSGFSLSTSGMGVSWIRQPSGKGLEWLAHIYWDDDKRYNPSLKSRLTISKDTSSNQVFLKITSVDTADTATYYCARSGSYYGSSLDSWGQGTTLTVSS
VL: DVLMTQTPLSLPVSLGDQASISCRSSQSIVHSNANTYLEWYLQKPGQSPKLLIYKVSNRFSGVPDRFSGSGSGTDFTLKISRVEAEDLGVYYCFQGSHVPWTFGGGTKLEIRR
notes: as for B1
On to B18, for which the binding result is on record as “binds”.
